These results are taken from PMC10433963, “Interactome Analysis Identifies MSMEI_3879 as a Substrate of Mycolicibacterium smegmatis ClpC1” (Microbiology Spectrum, 2023).

B1: DnaJ1 (recombinant) (natural protein, M. smegmatis, UniProt A0QQD0 1-390, looked up)
chain: MAQREWVEKDFYKELGVSSDASADEIKKAYRKLAAELHPDRNSDPGAAERFKAVSEANSVLSDPAKRKEYDETRRLFAGGFGRRFNQGGGGFGGGFGSDGVEFNLGDLFDAAGQTGGANIGDLFGGLFGRGPQQRPSRPRRGNDLETETELSFLEATKGVAMPLRLTSPAPCTNCHGSGARPGTSPKVCPSCNGSGVISRNQGAFGFSEPCTECRGSGSIIEHPCQECRGTGVTTRTRTINVRIPPGVEDGQRIRLAGQGEAGLRGAPSGDLYVTVHVRPDKVFGRDGDDLTVTVPVSFHELALGTTLSVPTLDGKVGVRVPKGTSDGRILRVRGRGVPKRSGGHGDLLVTVKVAVPPNLEGEAAEALEAYAKAERASGFDPRAGWAGNV
notes: H7-SUMO tags were removed with Ulp1 or left intact for microscale thermophoresis; also called Chaperone protein DnaJ1
B2: XRE (recombinant) (natural protein, M. smegmatis, UniProt A0QQY3 1-142, looked up)
chain: MAQDENLAAVVSNAAQDIGSFIRAQREAAQVSVRQLAEKAGVSNPYLSQIERGLRKPSADVLNQIAKALRVSAEVLYVRAGILEPSEPSEVRDAIVNDVSITERQKQVLLDIYTSFRQQNEAAGEPEGAAVIPSPDEEPATD
notes: H7-SUMO tags were removed with Ulp1 or left intact for microscale thermophoresis; also called Transcriptional regulator, XRE family protein
B3: Magnesium chelatase (recombinant) (natural protein, M. smegmatis, UniProt A0R3L1 1-461, looked up)
chain: MVSQPKDLPRTVGELRASGHRERGVKAEIRENLLAALAERRDVWPGILGFEDTVIPQLERALIAGHDVVLLGERGQGKTRLLRALTGLLDEWTPVIAGSELGEHPYSPITPESIRRAADSGDDLPVEWRHRSERYTEKLATPDTSVADLVGDIDPIKVAEGRSLGDPETIAYGLIPRAHRGIVAVNELPDLAERIQVAMLNVMEERDIQVRGYTLRLPLDVLVVASANPEDYTNRGRIITPLKDRFGAEIRTHYPLELEAEVGVIRQEAELAAEVPEYLLAVLARFARNLRESNSIDQRSGVSARFAIAAAETVAASARHRAAILGEDDPVARVVDLGTVIDVLRGKLEFETGEEGREQAVLEHLLRRATADTAQRLLGGIDVGPLVAAIEEGSPVTTGERVSAKDVVAALPDLPAIDAIAHRLNAVSVGQRAAAIELALEALYLAKRIDKVSGEGETVYG
notes: H7-SUMO tags were removed with Ulp1 or left intact for microscale thermophoresis; also called Mg chelatase

The assay deals with T1, ^H7-SUMOClpC1^FLAG (recombinant ClpC1) (M. smegmatis, UniProt A0R574 1-848).
T1 construct: ClpC1 unfoldase, M. smegmatis; used at 0.1 uM (hexamer) in microscale thermophoresis; In the degradation assays (functional rows) ClpC1 stood with ClpP1P2 and its H7-SUMO tag may have been removed; not shown: H7-SUMO, N-terminal, kept; FLAG, C-terminal, kept
T1 sequence (A0R574 whole entry): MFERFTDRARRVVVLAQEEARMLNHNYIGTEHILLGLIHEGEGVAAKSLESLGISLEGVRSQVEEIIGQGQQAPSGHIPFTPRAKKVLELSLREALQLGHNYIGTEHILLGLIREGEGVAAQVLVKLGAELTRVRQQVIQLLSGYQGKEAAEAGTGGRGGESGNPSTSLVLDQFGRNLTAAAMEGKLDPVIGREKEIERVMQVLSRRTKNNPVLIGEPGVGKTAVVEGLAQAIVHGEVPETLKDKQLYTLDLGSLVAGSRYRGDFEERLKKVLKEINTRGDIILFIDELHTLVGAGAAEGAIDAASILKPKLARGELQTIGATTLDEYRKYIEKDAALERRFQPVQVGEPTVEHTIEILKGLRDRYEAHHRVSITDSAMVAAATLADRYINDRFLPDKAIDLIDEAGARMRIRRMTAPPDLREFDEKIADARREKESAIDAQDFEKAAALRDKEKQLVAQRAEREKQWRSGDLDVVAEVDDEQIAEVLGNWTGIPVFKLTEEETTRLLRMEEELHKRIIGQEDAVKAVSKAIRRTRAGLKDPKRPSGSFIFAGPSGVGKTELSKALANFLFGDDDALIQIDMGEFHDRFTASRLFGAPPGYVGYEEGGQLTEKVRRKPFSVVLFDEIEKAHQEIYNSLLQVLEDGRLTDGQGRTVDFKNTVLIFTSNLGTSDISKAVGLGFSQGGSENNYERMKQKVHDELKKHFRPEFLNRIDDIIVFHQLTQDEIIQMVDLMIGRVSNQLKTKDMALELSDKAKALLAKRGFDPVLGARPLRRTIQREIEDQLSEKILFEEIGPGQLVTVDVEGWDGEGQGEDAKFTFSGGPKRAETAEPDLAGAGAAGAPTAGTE
The experiment in a line: MST; Monolith NT.115; 0.1 uM ^H7-SUMOClpC1^FLAG (hexamer) with 0.1 uM His Lite OG488-Tris-NTA-Ni dye, partner titrated; fit to a Hill-form binding equation; apparent (Kapp). The conditions noted are these: both partners purified.
Take B1: the binding result is “binds”.
For the molecule B2, the binding result is listed as “binds”.
On to B3, for which the binding result was “binds”.
